The target in one experiment is 6×His-tagged FcRn/β2m (UniProt P55899 24-365; P61769 21-119). Put plainly: BLI; pH 7.4; FcRn immobilised.
Experiment [1] addresses FcRn/β2m heterodimers (SPR analyte) (UniProt P55899 24-365; P61769 21-119). Put plainly: SPR; pH 7.4; IgG captured by gp120. In general terms: SPR reads the build-up and loss of mass on a sensor chip optically.
In experiment [2] the target is 6×His-tag cleaved FcRn/β2m (UniProt P55899 24-365; P61769 21-119). In words: BLI; pH 7.4; IgG immobilised. In general terms: Biolayer interferometry detects binding as a change in optical thickness at a sensor tip.
Chain of 6×His-tag cleaved FcRn/β2m (P55899 24-365, chain 1 of 2): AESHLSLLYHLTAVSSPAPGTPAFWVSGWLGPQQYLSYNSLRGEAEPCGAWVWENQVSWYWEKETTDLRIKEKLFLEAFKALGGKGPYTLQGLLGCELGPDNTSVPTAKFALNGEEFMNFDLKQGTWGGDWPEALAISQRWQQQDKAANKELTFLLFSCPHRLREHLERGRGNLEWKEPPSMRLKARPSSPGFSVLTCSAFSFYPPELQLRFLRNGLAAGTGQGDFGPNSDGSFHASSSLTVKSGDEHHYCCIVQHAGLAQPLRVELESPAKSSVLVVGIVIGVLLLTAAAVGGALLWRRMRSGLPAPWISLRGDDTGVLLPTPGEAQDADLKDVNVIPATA
Chain of 6×His-tag cleaved FcRn/β2m (P61769 21-119, chain 2 of 2): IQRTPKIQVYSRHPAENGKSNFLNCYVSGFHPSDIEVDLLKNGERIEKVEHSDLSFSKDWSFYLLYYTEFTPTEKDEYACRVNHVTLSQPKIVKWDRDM

Chain of 6×His-tagged FcRn/β2m (P55899 24-365, chain 1 of 2): as the sequence (P55899 24-365, chain 1 of 2) above
Chain of 6×His-tagged FcRn/β2m (P61769 21-119, chain 2 of 2): as the sequence (P61769 21-119, chain 2 of 2) above
Chain of FcRn/β2m heterodimers (SPR analyte) (P55899 24-365, chain 1 of 2): as the sequence (P55899 24-365, chain 1 of 2) above
Chain of FcRn/β2m heterodimers (SPR analyte) (P61769 21-119, chain 2 of 2): as the sequence (P61769 21-119, chain 2 of 2) above

B1: VRC07-523LS.v1 (antibody)
chain 1: QVRLSQSGGQMKKPGDSMRISCRASGYEFINCPINWIRLAPGKRPEWMGWMKPRFGAVSYARQLQGRVTMTRQLSQDPDDPDWGTAFLELRSLTSDDTAVYFCTRGKYCTARDYYNWDFEHWGQGTPVTVSS
chain 2: LTQSPGTLSLSPGETAIISCRTSQYGSLAWYQQRPGQAPRLVIYSGSTRAAGIPDRFSGSRWGPDYNLTISNLESGDFGVYYCQQYEFFGQGTKVQVD
The Kd is the concentration at which binding is half-saturated. A low value points to a tighter complex. Regarding B1, the Kd in the experiment with 6×His-tagged FcRn/β2m amounted to 930 nM; in experiment [1] it was 10000 nM; in experiment [2] it was 180 nM.

B2: VRC07-523LS.v34 (antibody)
chain 1: QVRLSQSGGQMKKPGDSMRISCSASGYEFINCPINWIRLAPGKRPEWMGWMKPRFGAVSYARQLQGRVTMTRQLSQDPDDPDWGTAFLELRSLTSDDTAVYFCTRGSYCTARDYYNWDFEHWGQGTPVTVSS
chain 2: LTQSPGTLSLSPGETAIISCETSQYGSLAWYQQRPGQAPRLVIYSGSTRAAGIPDRFSGSRWGPDYNLTISNLESGDFGVYYCQQYEFFGQGTKVQVD
For B2, the figures for the Kd (in the experiment with 6×His-tagged FcRn/β2m; in experiment [1]; in experiment [2]) were 6000 nM, 6300 nM and 170 nM, respectively.

B3: VRC07-523LS.v23 (antibody)
chain 1: QVRLSQSGGQMKKPGDSMRISCRASGYEFINCPINWIRLAPGKRPEWMGWMKPRFGAVSYARQLQGRVTMTRQLSQDPDDPDWGTAFLELRSLTSDDTAVYFCTRGKYCTARDYYNWDFEHWGQGTPVTVSS
chain 2: LTQSPGTLSLSPGETAIISCSTSQYGSLAWYQQRPGQAPRLVIYSGSTRAAGIPDRFSGSRWGPDYNLTISNLESGDFGVYYCQQYEFFGQGTKVQVD
Regarding B3, the results for the Kd (with 6×His-tagged FcRn/β2m; in experiment [1]; in experiment [2]) were 1600 nM, 3800 nM and 170 nM, respectively.

B4: VRC07-523LS.v37 (antibody)
chain 1: QVRLSQSGGQMKKPGDSMRISCQASGYEFINCPINWIRLAPGKRPEWMGWMKPRFGAVSYARQLQGRVTMTRQLSQDPDDPDWGTAFLELRSLTSDDTAVYFCTRGQYCTARDYYNWDFEHWGQGTPVTVSS
chain 2: LTQSPGTLSLSPGETAIISCETSQYGSLAWYQQRPGQAPRLVIYSGSTRAAGIPDRFSGSRWGPDYNLTISNLESGDFGVYYCQQYEFFGQGTKVQVD
Turning to B4, the figures for the Kd (in the experiment with 6×His-tagged FcRn/β2m; in experiment [1]; in experiment [2]) were 5400 nM, 9600 nM and 180 nM, respectively.

The values are drawn from paper PMC10288911 (2023).
